For experiment [1], the target named is T1, Human PD1-extracellular domain (ECD)-His (human, UniProt Q15116 25-167).
T1 construct: Expressed in CHO cells, purified by IMAC and size exclusion; also called human PD-1 ECD; human PD1-ECD-his
The experiment can be described thus: SPR, Biacore 8K, 25° C., mAb captured on protein A, PD1-ECD-His as analyte, n=1. Here is the method: (§1) The binding kinetics of an anti-human PD-1 agonist antibody of the invention to human and cynolmolgus monkey PD-1 ECDs may be determined by use of a surface plasmon resonance biosensor such as BIAcore® 2000, BIAcore® 3000, BIAcore® 8K, or a BIAcore® T100 (GE Healthcare, Piscataway, N.J.). Briefly described, a BIAcore® 8K instrument is used to measure the binding kinetics for Antibody 1 to human and cynomolgus monkey PD1-extracellular domain (ECD)-His via surface plasmon resonance (SPR) at 25° C. Samples are dissolved in 1×HBS-EP+ running buffer (Teknova cat. # H8022) and a protein A coupled CMS Series S sensor chip (GE Healthcare Cat #29139131-AA) is utilized to capture mAb. Human and cynomolgus monkey PD1-ECD proteins which contain a C-terminal 8× histidine tag are expressed in CHO cells and purified by nickel charged IMAC followed by size exclusion.
(§2) Binding is evaluated using multiple analytical cycles. Each cycle is performed at 25° C. at a flow rate of 10 μl/minute for mAb capture and 30 μl/minute for ligand association and dissociation. Each cycle consists of the following steps: injection of mAb at 2 μg/ml for 60 s contact time targeting a capture level of approximately 220RUs on flow cell 2, injection of 150 seconds of human or cynomolgus PD1-ECD-his (concentration range of 400 nM to 1.6 nM by four fold serial dilution) followed by 600 second dissociation phase, and regeneration using 10 mM glycine hydrochloride, pH 1.5 over a 30 second contact time. Association (i.e., Kon) and dissociation rates (i.e., Koff) for each cycle are evaluated using standard double referencing and fit to “1:1 (Langmuir) binding” model in the Biacore 8K evaluation in parallel kinetics batch mode. The affinity (KD) is calculated from the binding kinetics according to the relationship KD=Koff/Kon.

Experiment [2] has as its target T2, Cynomolgus monkey PD1-extracellular domain (ECD)-His (cynomolgus monkey).
T2 construct: Expressed in CHO cells, purified by IMAC and size exclusion; also called cynomolgus monkey PD-1 ECD; cynomolgus PD1-ECD-his
T2 chain: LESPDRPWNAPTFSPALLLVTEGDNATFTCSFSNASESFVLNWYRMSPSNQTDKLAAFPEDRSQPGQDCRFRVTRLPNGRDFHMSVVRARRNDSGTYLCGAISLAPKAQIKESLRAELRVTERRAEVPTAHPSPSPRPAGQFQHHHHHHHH
The description is as above. As for the experimental part:
as §1, §2

For experiment [3], the target named is T3, Human PD-1 (cell membrane expressed) (human, UniProt Q15116 25-288).
T3 construct: no cleavage site is stated; also called hPD-1; CD279
Nature of the experiment: flow cytometry on CHO cells expressing human PD-1, GMFI, 4-parameter fit, average. The source says:
(§3) The ability of the anti-human PD-1 agonist antibodies disclosed herein to bind to cell surface human or cynomolgus monkey PD-1 can be measured using a flow cytometric assay. Human and cynomolgus monkey PD-1 (i.e., as shown in SEQ ID NOs: 13 and 15, respectively) expressing stable cells are generated by transfecting human or cynomolgus monkey PD-1 plasmid DNA into Chinese Hamster Ovary cells (CHO-kl; Lonza) using an electroporation system (Gene Pulser Xcell; BioRad) according to established protocols. Stable cells are selected from single isolated cells using 500 μg/mL G418 (Thermo Scientific) in culture medium. For flow cytometry, the cells are transferred into a 96-well V-bottom plate at density of 1×10⁵ cells/well. The cells are washed with 1×FACS buffer (Becton Dickinson #554656). Antibody 1, or control human IgG1 (diluted in FACS buffer in a three-fold 12-point titration of the antibodies, starting at 100 micrograms/mL) are added (in 100 microliters) and cells are incubated at 4° C. for 30 minutes.
(§4) After washing twice in FACS buffer, live/dead cell staining is performed using SytoxBlue (Invitrogen, #S34857) per manufacturer's protocol. […] Flow cytometry data is analyzed using FlowJo software. Geometric Mean Fluorescence Intensity (GMFI) values are used to calculate relative EC₅₀ based on 4-parameter logistic regression.
For orientation: In flow cytometry, cells or beads pass a laser one at a time.

Experiment [4] has as its target T4, Cynomolgus monkey PD-1 (cell membrane expressed) (cynomolgus monkey, UniProt Q15116 25-288 (human entry)).
T4 construct: Stably expressed on CHO-K1 cells; no cleavage site is stated; also called cyno PD-1; cynomolgus PD-1
T4 chain: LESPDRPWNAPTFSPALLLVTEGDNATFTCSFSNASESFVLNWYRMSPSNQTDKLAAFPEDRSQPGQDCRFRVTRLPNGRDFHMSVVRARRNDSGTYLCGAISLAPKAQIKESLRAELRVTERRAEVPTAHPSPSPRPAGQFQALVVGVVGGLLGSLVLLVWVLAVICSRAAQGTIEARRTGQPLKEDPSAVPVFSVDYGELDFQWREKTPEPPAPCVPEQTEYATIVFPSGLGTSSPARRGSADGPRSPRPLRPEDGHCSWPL
The experiment can be described thus: flow cytometry on CHO cells expressing cynomolgus monkey PD-1, GMFI, 4-parameter fit, average.
From the text: as §3, §4

In experiment [5] the target is T1, Human PD1-extracellular domain (ECD)-His. The experiment can be described thus: SPR, Biacore T200, 37° C., mAb captured, PD1-ECD-His as analyte, mean ± SD, n=9; 37° C. (n=9). Here is the method:
(§5) In subsequent experiments, Biacore was used to measure the binding kinetics for Antibody 1 to human and cynomolgus monkey PD1-extracellular domain (ECD)-His via surface plasmon resonance (SPR) at 37° C. by BIAcore® T200. For analyses at 37° C., binding is evaluated using multiple analytical cycles. Each cycle is performed at 37° C. at a flow rate of 10 μl/minute for mAb capture and 100 μl/minute for ligand association and dissociation. Each cycle consists of the following steps: injection of mAb at 2.5 μg/ml targeting a capture level of approximately 220RUs on flow cell 2, injection of 180 seconds of human or cynomolgus PD1-ECD-his (concentration range of […] to 1.6 nM by 2-fold serial dilution) followed by 600 second dissociation phase, and regeneration using 10 mM glycine hydrochloride, pH 1.5 over a 30 second contact time. Kon, Koff, and KD are calculated essentially as described above. Affinity data is reported as average and standard deviations determined from triplicate measurements in three independent experiments (mean±SD, n=9).

Experiment [6] shares this target. Nature of the experiment: SPR, Biacore T200, 37° C., mAb captured, PD1-ECD-His as analyte, mean ± SD, n=9. Here is the method: as §5
The target in experiment [7] is T2, Cynomolgus monkey PD1-extracellular …. Described as above. As for the experimental part: as §5
For experiment [8], the target named is T3, Human PD-1 (cell membrane expressed). The experiment can be described thus: cell-based or functional assay.

As usually defined, the Kd is the concentration at which binding is half-saturated. A word on the koff: it is a measure of how fast the partners let go of each other. A word on the kon: it is a measure of how fast the partners come together. The term EC50 denotes the concentration at which the effect is half-maximal.

T3 sequence (Q15116 25-288 limits assumed): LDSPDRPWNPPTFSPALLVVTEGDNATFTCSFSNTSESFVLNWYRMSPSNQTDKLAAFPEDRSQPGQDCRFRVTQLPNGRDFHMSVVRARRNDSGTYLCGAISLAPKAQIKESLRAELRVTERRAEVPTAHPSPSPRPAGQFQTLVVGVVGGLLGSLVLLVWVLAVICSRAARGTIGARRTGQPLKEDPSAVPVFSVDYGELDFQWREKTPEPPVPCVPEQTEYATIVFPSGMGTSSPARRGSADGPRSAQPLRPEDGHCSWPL

B1: Antibody 1 (antibody, human IgG1, kappa, V domains shown)
VH: QVQLVQSGAEVKKPGASVKVSCKVSGYSLSKYDMSWVRQAPGKGLEWMGIIYTSGYTDYAQKFQGRVTMTEDTSTDTAYMELSSLRSEDTAVYYCATGNPYYTNGFNSWGQGTLVTVSS
VL: DIQMTQSPSSLSASVGDRVTITCQASQSPNNLLAWYQQKPGKAPKLLIYGASDLPSGVPSRFSGSGSGTDFTLTISSLQPEDFATYYCQNNYYVGPVSYAFGGGTKVEIKR
notes: Humanized IgG1 with kappa light chain; also called anti-human PD-1 agonist antibody; anti-human PD-1 agonist IgG1 antibody
As for B1, the Kd stood at 1 nM in experiment [1], 4.7 nM in experiment [2], 2.29 nM in experiment [6] and 9.51 nM in experiment [7]. Also, the koff turned out to be 0.00017 s⁻¹ in experiment [1], 0.0011 s⁻¹ in experiment [2], 0.000701 s⁻¹ in experiment [6] and 0.00489 s⁻¹ in experiment [7]. Further, the kon in experiment [1] is 170000 M⁻¹ s⁻¹; in experiment [2], 240000 M⁻¹ s⁻¹; in experiment [5], 307000 M⁻¹ s⁻¹; in experiment [7], 519000 M⁻¹ s⁻¹. For the same molecule, the results for the EC50 in experiment [3] and in experiment [4] were 1.3 µg/mL and 1.09 µg/mL, respectively. Also, the “inhibition of human PD-1 NFAT-luciferase reporter cell activity (IC50)” value in experiment [8] was 0.0752 µg/mL.
